The values that follow come from the supplement of paper PMC12042874.

± gives the uncertainty stated by the source.

This series can be described thus: amyloid nucleation score (Sup35N fusion, yeast selection) (log enrichment); library NNK2; higher = more nucleation; inactive = no reads after selection. The method in brief:
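Libraries of peptides of 20 random codons fused to Sup35N were expressed in psi-negative yeast and induced 24 hours with 100 μM copper sulfate. Selection was 7 days at 30°C on medium lacking adenine and uracil, and plasmid inserts were Illumina-sequenced before and after selection. Nucleation score is the DiMSum log enrichment of output over input reads, centred on the mode score of non-aggregating sequences, and sequences with under 100 input reads were left out.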
Turning to NVSIMFRFFVYLC, the amyloid nucleation score stood at 4.16 ± 0.066. LPFLPSCVVEKQVEYVWIRG returned an amyloid nucleation score of 0.332 ± 0.25. Consider RVIDLVTCKAHSGWSVLGYM, for which the amyloid nucleation score is -0.402 ± 0.37. Under LPLWLIDIALFLSFCIVGQS stands -0.369 ± 1.1; under FFFMSDLYKSLSSAYDLGSI, “inactive”. For the substance MKLFISNHTLWSIGKGDGVT, the amyloid nucleation score entry was “inactive”. Substance YQRNSFNDHADYPYHELVKS returned an amyloid nucleation score of 0.222 ± 0.64. As to MERDCVRVDLFRVSRGGWML, the amyloid nucleation score was 5.863 ± 0.052. ILDCLRVRESDHVSGRNRVC: the amyloid nucleation score came out at 0.509 ± 0.37. Turning to ALLYYTAVVDKNYTSDLSHD, the amyloid nucleation score is -0.899 ± 0.37. As for SNVQGLACETTGMARGMWSE, the amyloid nucleation score came out at 0.597 ± 0.17. Regarding GGTQLRTG, the amyloid nucleation score is -0.961 ± 1.1. Under VRRCIVRI stands 0.267 ± 0.4; under VPSSNFVWVFLRLKS, -0.996 ± 0.49. Substance ERGSGASMFVDGGRYRSRPM returned an amyloid nucleation score of -0.159 ± 1. Regarding RYTYRHNVFTNMSLVYNTMP, the amyloid nucleation score worked out at 2.88 ± 0.11. MISRSFPQSVFFLTDLWS gave an amyloid nucleation score of -0.667 ± 0.31. Regarding VIVSMVSE, the amyloid nucleation score result was “inactive”. As to SYVCRIERADVACWVKEEGA, the amyloid nucleation score worked out at 0.857 ± 0.28.

Regarding SNRWPGTFLASETNVLLE, the amyloid nucleation score was -0.224 ± 0.32.

With SRPWNYCRDLWTSVHTGLLS, the amyloid nucleation score amounted to 0.547 ± 0.36. Substance QYVMERYWRDWFKRMMLLFS displayed an amyloid nucleation score of 0.584 ± 0.27. The same measure for IEDSEREMACINPGFSFVVV: -1.83 ± 1.1; for YADKSKTCNYFSQLP: 0.016 ± 1.1. For the substance PLSLYNFIFYNAEVPYVVVT, the amyloid nucleation score was 1.84 ± 0.1. The same measure for RVDKGVEFSSTSGSVRNFSL: -0.83 ± 1.1; for CPNLNTFTLFPELGNLYLHR: 0.329 ± 0.8.

With ASCWTVGQLTHVSVSMWGFI, the amyloid nucleation score came out at 0.943 ± 0.53.

Substance KCTFMTDFMIIDEVMYWNRC returned an amyloid nucleation score of 1.35 ± 0.46.

Turning to VRSLKTHRFPFLCERSKFMG, the amyloid nucleation score is -0.987 ± 0.38. On to NRRNLSVGYSKVHS, for which the amyloid nucleation score was 0.443 ± 0.3.

For SEVILYGMHSNINLPI, the amyloid nucleation score turned out to be 0.063 ± 1.1. The substance CGVMKNYDESKTYGLGLG registered an amyloid nucleation score of 3.51 ± 0.1. Substance LRNDDIY gave an amyloid nucleation score of -0.533 ± 0.39. For the substance SDVELWRYG, the amyloid nucleation score came out at 2.55 ± 0.065. The substance GWNGNLSGTAHLGSSIVSSG returned an amyloid nucleation score of -0.649 ± 0.79. Substance IQSDLNNLLMHVRVFMCSAV came in with an amyloid nucleation score of 4.05 ± 0.065. As to QTVQVRPVRYGSQSFRNFGW, the amyloid nucleation score was -0.109 ± 0.49. QTGNFPIDHVQYCFFRITLS showed an amyloid nucleation score of -1.28 ± 0.62. Take LTHIKDRVELLLGGQFISDT: the amyloid nucleation score was found to be 0.011 ± 1.1. Under VFEFVVDNHLNIRLTRGGFM stands 4.93 ± 0.084; under LWILNNFGTIIFRTSHYKGV, 7.4 ± 0.078.

With RLVNASEGGMHWANSSEFYA, the amyloid nucleation score stood at 0.643 ± 0.24. TFDWKTSKPYANKPLRFETS: the amyloid nucleation score came to 0.284 ± 0.34. On to RYISYITSVSESRQGNRPYG, for which the amyloid nucleation score was -0.446 ± 0.28. NMLVVFNAPYYSL showed an amyloid nucleation score of 7.811 ± 0.049. With NCESQVVDMYITIRLFVLWV, the amyloid nucleation score was found to be 0.202 ± 0.18. Take KTIFGGWSARSGNISMPSWM: the amyloid nucleation score came out at 0.267 ± 0.54. Under VLGMYVFDRG stands 0.543 ± 0.46; under GDDLPWWCISIWFFLSWLEN, “inactive”. As to FYSFRLFMV, the amyloid nucleation score came out at 1.88 ± 0.2. Take LDWGCILVQ: the amyloid nucleation score turned out to be 0.012 ± 0.43. Turning to LFAIGEVTAYSGRLFSFYTQ, the amyloid nucleation score was 1.79 ± 0.26. GILYLSLYDFCV showed an amyloid nucleation score of -0.763 ± 1.

GRVVSSFSLKSDNFMMYFRI returned an amyloid nucleation score of -1.18 ± 1.1.

Substance YFMLRSVTL registered an amyloid nucleation score of 3.75 ± 0.1.

For YIGEFGFILIPLRSFSPIPC, the amyloid nucleation score result is “inactive”. The substance AISSRLILLTPRAKSFVPSD yielded an amyloid nucleation score of -0.247 ± 0.65. Regarding NMCVK, the amyloid nucleation score entry was “inactive”. The substance ALNAG registered an amyloid nucleation score of 1.11 ± 0.2. For the substance VPLHDARTRM, the amyloid nucleation score came to 0.637 ± 0.24. Consider MLNSMVGQNFVGYNHALFFH, for which the amyloid nucleation score stood at 4.16 ± 0.089. IFPLPDLGAYSC: the amyloid nucleation score stood at 0.47 ± 0.65. The same measure for NFRRLVMGSRNYSLFCGDKE: “inactive”; for ADDFINVNDTNKTVLCMCCG: -0.61 ± 0.78; for YWCLA: -0.737 ± 0.45. As for ATSTITNYGLPNRPCVSYMF, the amyloid nucleation score was -0.043 ± 0.32. In the case of LTTWNGCSDEC, the amyloid nucleation score was -0.557 ± 1.1. The same measure for NLEPKNCCCCETFFISYIPT: 1.09 ± 0.35. The same measure for PTCSNHCFFYLNHTN: 3.66 ± 0.12; for QWCYSAVYSMLVSKRL: 2.68 ± 0.078; for WAATITDRYRCL: 0.35 ± 0.35. In the case of PIGLGVCLVICLKNEVSRCW, the amyloid nucleation score came out at 3.37 ± 0.063.

The substance WNTAYGRVLASL came in with an amyloid nucleation score of 2.32 ± 0.092. KFFFSCTTKFL: the amyloid nucleation score is 3.06 ± 0.1. In the case of NFIRDSMVTCRYEKDLGA, the amyloid nucleation score came to 0.713 ± 0.8.

PVFAFQYLSLCKWDLF showed an amyloid nucleation score of -0.976 ± 1. CGLCMEGYSHEMIDRLSSIS came in with an amyloid nucleation score of 0.227 ± 0.56. SIRRLTR: the amyloid nucleation score was -0.172 ± 0.49.

Turning to MCEFLIYWIYNFSFVSSPRL, the amyloid nucleation score worked out at 0.157 ± 1. The same measure for HNIIWFSLTWLRYMSVVVIC: “inactive”; for CSGHNRYYPRRGMDQHMLVF: 0.266 ± 0.2; for LAGYSHTI: 0.406 ± 0.46. LEVCFWFRNSVTKVSMSACL returned an amyloid nucleation score of -1.06 ± 0.63. Under NSVWANARRLTVCGAERGGT stands 1.24 ± 0.17; under ALECGRTMEINLTGR, 0.942 ± 0.37; under FLDQWDMCP, 0.619 ± 0.81.

Consider IVPRIKSAMLLKF, for which the amyloid nucleation score was -0.301 ± 0.21. On to EQRILRLSRSIESFSMNRNQ, for which the amyloid nucleation score is -0.593 ± 0.64. On to VQYLVDCMYWVQGMAVSE, for which the amyloid nucleation score came to 0.475 ± 0.46.

Turning to ARLRC, the amyloid nucleation score is 0.001 ± 0.28. EGTTKFDWHYYQVSTGNFAS had an amyloid nucleation score of 1.05 ± 0.51. RENVVSGHDRNECAGLMSRG gave an amyloid nucleation score of 0.343 ± 0.27. Regarding CKPAVPMLN, the amyloid nucleation score turned out to be 2.49 ± 0.076. Substance YFSQQSEGSALCVLKHWVKS gave an amyloid nucleation score of 0.253 ± 0.42. In the case of KVLRCYGDHFHHANSRTCLR, the amyloid nucleation score is -1.08 ± 0.76.

GRTGFFYLGAKYVSHEGAGK: the amyloid nucleation score result was “inactive”. As for SMLDILS, the amyloid nucleation score was -1.79 ± 0.62.

The substance RKCQIRVMKNSD gave an amyloid nucleation score of -0.858 ± 1.1. Take TYRLDSWITGSRLV: the amyloid nucleation score is -0.555 ± 0.76. YNVGALASVSRFRDGFGLS gave an amyloid nucleation score of 1.57 ± 0.1.

RFDQGVGTLWHVSLVTE had an amyloid nucleation score of -0.107 ± 1. The substance LNLILIDFKTSRCVERPFRE came in with an amyloid nucleation score of 7.052 ± 0.051. With SSQSHGGRFQIEYFW, the amyloid nucleation score is -0.059 ± 0.33.
